We go through ten sequences from a protein production outcome set (Wang et al. 2014).

This series in a line: label from the status in PepcDB records.
With “MEILHFSPSSSISTIIHRPRRKIMALRDSIKTQMNLITTESVSSFRFCPCGRRHFIGAAMTSMPFLPISPSHASTSTEDLKRLRPPKPDWYEEFFAWSMNSEVESYEKEVSDYKMKLFDNLVGKAEKVLEIGIGTGPNFKYYTDIPNVSVIGIDPNAKMESYARKSATEAGLKPEEFTFVHALGESIPLEDASVDAVVGTLVLCSVTDVTQTLKEIKRILRPGGIYIFIEHVAAEDGTFLRLVQTVLDPLQQVVADGCHLTRHTGESILEARFNGGADVKKTSLSRLAYISSHVYGVAYN”, the protein production result is reported as “failed”.

For the sequence “MEILSLGEKIKARRKELNMTLKDLAGDRITPGQISLVESGKSNPSMDLLEYLAGALNTSVEYLMESEETQAEKICVYYENTAEAYMLNDELMEAEQYLEKAMYYAENYKISYRKARTLYLYGCINMNKNELGVAQQFFLSSNVLFIKLNHYEDIINTFINLGKITLNLKAYNSSCSYFEQAERVSRDNDIGNDFLIGEIYYYMSLVYFKMNNSNKTIKYCLMAKEKFAELENKKEYARTLLILSKEYSKSGDVDNAIKYSKKALKAFKENDNMFAVADIENELGKLFYEFENIEESFIHLNKAKEIRKKTKGHEFIETLCNICENYIKLKDTENSQKVLNEIKENIDGNNVFDILKYYMLKYRISILNRSLKEAENILLRALQYAENMELEKEAAEFSVIIGKYYIDNGDDVEAAKYLNSGIEKFKKIGVLKDL”, the protein production result is on record as “failed”. For “MEILTCIKQVPGTTSVEVDETTGVLKRDGVDSKMNPYDLYALETALRIKEDKKANLKVLSMGPPQAKKVIEESFMMGADEGALISDRRFGGADVLATSYTISQGIKKMGKVDLIICGKQTTDGDTAQVGPEVAEFLDIPHVTNVTKLIEVKDESIVVEIDMPNDLQVCEIEYPCLITVEKDIFQPRLPSFKLKLNTKDREIPVYSLDDFEDKNENNYGLNGSPTQVVRIFPPKPNTDKNIVRGNADELSFALVNKLEELKLV”, the protein production entry was “not failed”.

Consider “MEILYIKGDATAPIGSGVKVITHICNDIGGWGKGFVLALSKKWKMPEEAYRQWYKSQEEFTLGAVQFVNVENKLYVANMIGQHGIYKDSKGLPPIRYDAVRQCLKEVALFTIAHKASVHMPRIGCGLAGGKWELMEQIIKEELITKEIAVTVYDL”, for which the protein production entry is given as “not failed”.

On to “MEIMKKQNSQINEINKDEIFVVVPAFNEEKMIGETLKNLKKEGYKNIVVVDDGSMDKTSEIAKKEGVIVCRHILNRGLGGALGTGIKCALLYKPKIIITFDADGQHHPKDVEKVVKPVLFEGYDMAIGSRMMDKNELKNMPLVKRIGNFGLNFITYLMGGYFVTDSQSGLRAFSYEAAKKIIGDLKSDRYEVSSEFIILAKKHGLKLKEVPIKTIYTEYSMSRGTNVITGFKILFKLIMQKIF”, for which the protein production entry is “failed”. Take “MEIQIVTGFLGAGKTTFLNRYLPLLSGKTVVIENEFGDIGIDGDRIQEDIPVREIFAGCICCSLAMDFRKGIKEIAENFHPDRILIEPSGVGRLTDIVKACQMAREREKVSLQITKLIAIVDMASFEEYIEGFGAFYQDQIERAGLLLLSHVEAENKAQKEIIIGRLKELNPDAILYDGDWRQLENEELLKLLEEAPDYDEDARRDAAFAALPADKVFSSVSFMDLPQMRIEDLEAIMKALEKEEYGYILRAKGWIETMEKGLVHFDFTPTVSKYREEKNPAGTGGEAVVIGCGLNQAALEMLFRRKNILEHHHHHH”: the protein production entry is on record as “not failed”. Next, “MEISEYFKDWMELYKKNAIDEMTYKGYEQTLKYLKTYMPNVLISEITASSYQRALNKFAETHAKASTKGFHTRVRASIQPLIEEGRLQKDFTTRAVVKGLEHHHHHH”: “not failed”; “MEITKIRGTLPSITYWNSTTPIKYTYNGTTYTGYMGNYWSDYNGTDSDGDGIGDTSYTVPNDLGTDNHPLMQPFENYNLEHHHHHH”: “failed”. As for “MEITPKRYWRRWRGYEKLDGSSETTSGRRKGKRVKMDPTRKKRFWRIKIVPKLRILKTASPKKFLVWLRDSYVKMMMRLANSRVVGSSGYGGSGFGSGQMKEYDEKMLVEIYKSILMVQAQGNLVHRDTPNNNLKLPSEPAVVSVVSSVVTC”, the protein production entry is recorded as “failed”.

Turning to “MEKALTKVTSFKVGSSWISKKAKEELSNITNDLTTFSSTVEEKAKWIFNKLKGKPLKSLPDLLKEYNLPPGLFPQNIICYEFDETKNKLTVFFSSPCEVTFKDGSAIRYATRVKGILLRGKLMGVEGMKTKVLVWVKVTTISVESSKSDKLWFTAGVKKSRSKDVYDTPHDAIKVIGEF”, the protein production result is “failed”.
